In general, stoichiometry N refers to a count of units in the complex or per binding partner.

The experiment deals with T1, Peroxiredoxin 1 (Prx1) WT, recombinant (mouse), P35700.
T1 chain: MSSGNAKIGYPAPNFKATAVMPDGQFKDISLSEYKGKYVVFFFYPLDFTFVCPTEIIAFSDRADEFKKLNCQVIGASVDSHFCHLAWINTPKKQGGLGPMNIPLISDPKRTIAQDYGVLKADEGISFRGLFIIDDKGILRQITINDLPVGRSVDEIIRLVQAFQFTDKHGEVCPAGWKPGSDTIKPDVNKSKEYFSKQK
The experiment in a line: native gel or EMSA; BN-PAGE of purified recombinant proteins incubated for 1 hour at room temperature (20 μg p66CH2CB with 40 μg Prx1 WT or 20 μg Prx1-Cys83Ser); bands cut out and separated in a second, denaturing SDS-PAGE dimension. The following applies: remark: other sources report otherwise. In general terms: In EMSA bound probe runs differently from free probe, usually more slowly.

B1: Peroxiredoxin 1 (Prx1) WT, recombinant, P35700 1-199 (enzyme)
chain: T1 chain
For B1, the stoichiometry N came out at 10.
